From US20220010021A1 (Sanofi, published 2022) come the findings set out here.

Positions count from the first letter of the chain named. In names and notes the source's numbering stands.

The target in experiment [1] is T1, human beta-Klotho (KLB) (human, UniProt Q86Z14 53-997).
T1 construct: bought protein, used as analyte in the off-rate screening; also called human KLB; β-Klotho
T1 sequence (looked up): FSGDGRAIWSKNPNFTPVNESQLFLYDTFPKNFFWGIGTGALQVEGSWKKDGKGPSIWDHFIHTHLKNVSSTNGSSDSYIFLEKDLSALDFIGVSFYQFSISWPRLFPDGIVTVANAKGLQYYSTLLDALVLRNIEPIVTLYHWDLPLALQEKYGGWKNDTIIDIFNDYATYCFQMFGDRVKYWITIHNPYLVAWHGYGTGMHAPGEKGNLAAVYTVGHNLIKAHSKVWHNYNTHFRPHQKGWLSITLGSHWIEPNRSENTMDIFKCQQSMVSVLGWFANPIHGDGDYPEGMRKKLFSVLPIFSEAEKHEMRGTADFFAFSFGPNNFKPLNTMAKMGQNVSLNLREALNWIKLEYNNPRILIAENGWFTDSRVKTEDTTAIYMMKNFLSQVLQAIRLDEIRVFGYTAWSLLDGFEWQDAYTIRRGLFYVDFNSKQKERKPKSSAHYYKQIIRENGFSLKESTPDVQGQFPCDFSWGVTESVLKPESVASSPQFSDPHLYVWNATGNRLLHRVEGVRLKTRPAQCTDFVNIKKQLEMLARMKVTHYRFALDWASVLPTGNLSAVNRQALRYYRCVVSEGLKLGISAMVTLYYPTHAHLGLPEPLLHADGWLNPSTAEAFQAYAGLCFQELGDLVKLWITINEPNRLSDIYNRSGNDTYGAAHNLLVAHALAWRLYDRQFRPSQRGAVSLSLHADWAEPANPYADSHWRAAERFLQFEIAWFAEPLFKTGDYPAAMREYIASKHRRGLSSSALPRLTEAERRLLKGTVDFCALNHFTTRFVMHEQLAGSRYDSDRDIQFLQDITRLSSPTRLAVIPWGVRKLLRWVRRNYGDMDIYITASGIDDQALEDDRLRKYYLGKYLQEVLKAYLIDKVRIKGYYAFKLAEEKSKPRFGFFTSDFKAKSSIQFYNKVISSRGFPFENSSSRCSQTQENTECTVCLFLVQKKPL
Briefly: BLI off-rate screening, mAb captured, KLB analyte.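 Note: Off-rate taken from the dissociation phase, biosensors held in D-PBS with 0.1% BSA over 1800 s, antibody supernatants diluted to 25 µg/mL.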

The target in experiment [2] is human FGFR1c/KLB receptor complex on iLite FGF21 Assay Ready Cells (human, UniProt P11362 22-822; Q86Z14 1-1044). Put plainly: cell-based or functional assay. For Mean E max (%): reference of the scale not given here.
Sequence of human FGFR1c/KLB receptor complex on iLite FGF21 Assay Ready Cells (P11362 22-822, chain 1 of 2): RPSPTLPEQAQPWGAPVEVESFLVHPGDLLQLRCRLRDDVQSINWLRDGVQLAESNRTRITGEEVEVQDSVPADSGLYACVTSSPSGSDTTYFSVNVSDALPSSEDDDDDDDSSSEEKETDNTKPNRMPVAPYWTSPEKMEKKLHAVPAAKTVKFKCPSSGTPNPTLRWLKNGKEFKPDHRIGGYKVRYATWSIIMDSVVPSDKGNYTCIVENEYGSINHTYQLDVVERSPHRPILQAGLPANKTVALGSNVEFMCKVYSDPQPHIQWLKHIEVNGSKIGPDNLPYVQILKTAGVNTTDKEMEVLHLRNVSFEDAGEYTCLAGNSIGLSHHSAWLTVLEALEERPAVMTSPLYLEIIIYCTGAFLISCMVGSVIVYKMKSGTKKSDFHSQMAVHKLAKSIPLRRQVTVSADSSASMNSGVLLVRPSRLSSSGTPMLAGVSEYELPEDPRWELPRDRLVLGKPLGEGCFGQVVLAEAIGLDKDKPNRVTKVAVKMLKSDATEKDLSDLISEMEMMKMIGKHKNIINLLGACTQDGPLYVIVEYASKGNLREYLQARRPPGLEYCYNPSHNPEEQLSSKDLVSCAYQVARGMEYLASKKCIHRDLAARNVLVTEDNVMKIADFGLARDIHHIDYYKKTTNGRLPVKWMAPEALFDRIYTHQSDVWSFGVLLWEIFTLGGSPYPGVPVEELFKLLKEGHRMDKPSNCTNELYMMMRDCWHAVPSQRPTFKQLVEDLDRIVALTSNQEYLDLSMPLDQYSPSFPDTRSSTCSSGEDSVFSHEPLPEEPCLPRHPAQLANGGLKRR
Sequence of human FGFR1c/KLB receptor complex on iLite FGF21 Assay Ready Cells (Q86Z14 whole entry, chain 2 of 2): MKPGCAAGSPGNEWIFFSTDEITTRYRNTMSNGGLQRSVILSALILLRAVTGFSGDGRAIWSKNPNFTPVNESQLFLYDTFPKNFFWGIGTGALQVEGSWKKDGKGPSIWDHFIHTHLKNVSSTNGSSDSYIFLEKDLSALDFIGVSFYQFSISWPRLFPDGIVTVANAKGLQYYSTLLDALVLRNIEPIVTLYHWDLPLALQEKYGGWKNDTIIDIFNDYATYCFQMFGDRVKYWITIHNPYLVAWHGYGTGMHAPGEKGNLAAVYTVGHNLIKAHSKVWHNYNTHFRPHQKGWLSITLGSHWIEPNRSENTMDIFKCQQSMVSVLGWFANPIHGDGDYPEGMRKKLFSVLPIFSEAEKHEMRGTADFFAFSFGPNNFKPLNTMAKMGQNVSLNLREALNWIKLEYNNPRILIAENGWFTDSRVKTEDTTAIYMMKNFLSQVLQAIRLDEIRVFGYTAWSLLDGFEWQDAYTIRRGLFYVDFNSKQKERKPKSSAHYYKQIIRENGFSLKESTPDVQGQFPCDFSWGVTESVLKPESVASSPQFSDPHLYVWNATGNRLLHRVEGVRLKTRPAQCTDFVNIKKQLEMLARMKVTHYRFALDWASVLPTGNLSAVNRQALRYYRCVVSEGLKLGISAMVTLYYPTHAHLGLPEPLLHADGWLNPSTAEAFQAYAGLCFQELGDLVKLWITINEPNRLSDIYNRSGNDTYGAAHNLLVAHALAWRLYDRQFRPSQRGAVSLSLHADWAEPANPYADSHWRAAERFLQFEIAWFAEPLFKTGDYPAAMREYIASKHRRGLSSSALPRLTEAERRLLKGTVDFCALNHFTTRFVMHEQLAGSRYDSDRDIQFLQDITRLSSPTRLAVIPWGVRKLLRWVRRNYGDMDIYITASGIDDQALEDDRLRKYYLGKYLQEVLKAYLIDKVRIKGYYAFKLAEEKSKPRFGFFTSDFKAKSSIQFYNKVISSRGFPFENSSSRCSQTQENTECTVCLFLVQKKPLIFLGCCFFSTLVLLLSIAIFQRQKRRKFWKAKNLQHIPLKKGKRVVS
For experiment [3], the target named is human FGFR1c + KLB receptor complex on HEK293 iLite FGF21 reporter cells (human, UniProt P11362 22-822; Q86Z14 1-1044). Put plainly: cell-based or functional assay.
Sequence of human FGFR1c + KLB receptor complex on HEK293 iLite FGF21 reporter cells (P11362 22-822, chain 1 of 2): as the sequence (P11362 22-822, chain 1 of 2) above
Sequence of human FGFR1c + KLB receptor complex on HEK293 iLite FGF21 reporter cells (Q86Z14 whole entry, chain 2 of 2): as the sequence (Q86Z14 whole entry, chain 2 of 2) above
In experiment [4] the target is T2, human beta-Klotho (KLB) (human, UniProt Q86Z14 53-997).
T2 construct: bought protein; also called human KLB
T2 sequence (looked up): T1 sequence (looked up)
Briefly: SPR.

B1: 16H7 variant with light chain substitution R53S (antibody, V domains shown)
VH: not shown
VL: SYVLTQPPSVSVAPGQTARITCGGNNIGSESVHWYQQKPGQAPVLVVYDDSDSPSGIPERFSGSNSGNTATLTISRVEAGDEADYYCQVWDGNSDHVVFGGGTKLTVLG
Take B1: the off-rate (koff) (commonly a measure of how fast the partners let go of each other) in experiment [1] worked out at 0.00029 s⁻¹. Moreover, in experiment [2], the “Mean E max (%)” value turned out to be 105% and the “Mean EC50” value was found to be 0.113 nM.

B2: 16H7 variant with light chain substitution S51A (antibody, V domains shown)
VH: not shown
VL: B1 VL with S51A, S53R
With B2, the koff in experiment [1] was found to be 4.7e-05 s⁻¹. Also, in experiment [2], the “Mean E max (%)” value was 109% and the “Mean EC50” value was determined as 0.123 nM.

B3: 16H7 variant with light chain substitution S51D (antibody, V domains shown)
VH: not shown
VL: B1 VL with S51D, S53R
As to B3, the off-rate constant (koff) in experiment [1] was found to be 3.7e-05 s⁻¹. In experiment [2], the “Mean E max (%)” value stood at 97% and the “Mean EC50” value stood at 0.098 nM.

B4: 16H7 variant with light chain substitution S55N (antibody, V domains shown)
VH: not shown
VL: B1 VL with S53R, S55N
B4 displayed an off-rate constant (koff) in experiment [1] of 1.7e-05 s⁻¹. Also, in experiment [2], the “Mean E max (%)” value was 111% and the “Mean EC50” value turned out to be 0.141 nM.

B5: 16H7 variant with light chain substitution V98G (antibody, V domains shown)
VH: not shown
VL: B1 VL with S53R, V98G
In experiment [1], B5 yielded a koff of 1.1e-05 s⁻¹. Moreover, in experiment [2], the “Mean E max (%)” value turned out to be 105% and the “Mean EC50” value was 0.118 nM.

B6: 16H7 variant with light chain substitution S51V (antibody, V domains shown)
VH: not shown
VL: B1 VL with S51V, S53R
B6 returned a koff in experiment [1] of 2e-05 s⁻¹. Besides, in experiment [2], the “Mean E max (%)” value stood at 110% and the “Mean EC50” value was 0.139 nM.

B7: 16H7 variant with light chain substitution S55G (antibody, V domains shown)
VH: not shown
VL: B1 VL with S53R, S55G
In experiment [1], B7 returned a koff of 3.5e-05 s⁻¹. In experiment [2], the “Mean E max (%)” value stood at 104% and the “Mean EC50” value was determined as 0.128 nM.

B8: 16H7 variant with light chain substitution S55P (antibody, V domains shown)
VH: not shown
VL: B1 VL with S53R, S55P
Consider B8, for which the koff in experiment [1] stood at 3.2e-05 s⁻¹. In addition, in experiment [2], the “Mean E max (%)” value stood at 99% and the “Mean EC50” value was 0.109 nM.

B9: 16H7 variant with light chain substitution S55F (antibody, V domains shown)
VH: not shown
VL: B1 VL with S53R, S55F
B9: the koff in experiment [1] came out at 2.4e-05 s⁻¹. Further, in experiment [2], the “Mean E max (%)” value turned out to be 97% and the “Mean EC50” value was 0.095 nM.

B10: 16H7 variant with light chain substitution V98L (antibody, V domains shown)
VH: not shown
VL: B1 VL with S53R, V98L
In the case of B10, the off-rate constant (koff) in experiment [1] turned out to be 0.00013 s⁻¹. For the same molecule, in experiment [2], the “Mean E max (%)” value stood at 105% and the “Mean EC50” value was 0.121 nM.

B11: 16H7 variant with light chain substitution V98Y (antibody, V domains shown)
VH: not shown
VL: B1 VL with S53R, V98Y
B11: in experiment [1], the off-rate (koff) was determined as 5.9e-05 s⁻¹. In addition, in experiment [2], the “Mean E max (%)” value worked out at 100% and the “Mean EC50” value amounted to 0.109 nM.

B12: 16H7 variant with light chain substitution S55H (antibody, V domains shown)
VH: not shown
VL: B1 VL with S53R, S55H
Molecule B12 showed a koff in experiment [1] of 4e-06 s⁻¹. Moreover, in experiment [2], the “Mean E max (%)” value was 111% and the “Mean EC50” value was 0.122 nM.

B13: 16H7 variant with light chain substitution S55E (antibody, V domains shown)
VH: not shown
VL: B1 VL with S53R, S55E
B13: the koff in experiment [1] was found to be 3.8e-05 s⁻¹. In addition, in experiment [2], the “Mean E max (%)” value turned out to be 106% and the “Mean EC50” value was determined as 0.141 nM.

B14: Ab0182 (antibody, IgG4, V domains shown)
VH: not shown
VL: B1 VL with D50E, S53R
notes: IgG4 PE
For B14, in experiment [3], the EC50 (commonly the concentration needed to bring the measured effect to its halfway point) is 0.02 nM and the Emax – broadly, the size of the effect at its maximum, as opposed to the concentration needed – was found to be 2290%. The molecule further displayed a koff in experiment [4] of 0.000577 s⁻¹.

B15: 16H7 variant with light chain substitution S51G (antibody, V domains shown)
VH: not shown
VL: B1 VL with S51G, S53R
For B15, the dissociation rate constant (koff) in experiment [1] is 0.0001 s⁻¹. Moreover, in experiment [2], the “Mean E max (%)” value came out at 104% and the “Mean EC50” value amounted to 0.129 nM.

B16: 16H7 variant with light chain substitution S55V (antibody, V domains shown)
VH: not shown
VL: B1 VL with S53R, S55V
B16 came in with a koff in experiment [1] of 4.4e-05 s⁻¹. For the same molecule, in experiment [2], the “Mean E max (%)” value came out at 100% and the “Mean EC50” value turned out to be 0.131 nM.

B17: 16H7 variant with light chain substitution S55T (antibody, V domains shown)
VH: not shown
VL: B1 VL with S53R, S55T
For B17, in experiment [1], the koff turned out to be 1.3e-05 s⁻¹. Besides, in experiment [2], the “Mean E max (%)” value worked out at 100% and the “Mean EC50” value was 0.109 nM.

B18: 16H7 variant with light chain substitution V98K (antibody, V domains shown)
VH: not shown
VL: B1 VL with S53R, V98K
In experiment [1], B18 had a dissociation rate constant (koff) of 9e-05 s⁻¹. For the same molecule, in experiment [2], the “Mean E max (%)” value was found to be 106% and the “Mean EC50” value stood at 0.111 nM.

B19: 16H7 variant with light chain substitution S51C (antibody, V domains shown)
VH: not shown
VL: B1 VL with S51C, S53R
In turn, B19 showed a koff in experiment [1] of 4.7e-05 s⁻¹. Further, in experiment [2], the “Mean E max (%)” value worked out at 112% and the “Mean EC50” value is 0.147 nM.

B20: 16H7 variant with light chain substitution V98W (antibody, V domains shown)
VH: not shown
VL: B1 VL with S53R, V98W
In experiment [1], B20 returned a dissociation rate constant (koff) of 5.6e-05 s⁻¹. Also, in experiment [2], the “Mean E max (%)” value worked out at 99% and the “Mean EC50” value is 0.099 nM.

B21: 16H7 variant with light chain substitution S55D (antibody, V domains shown)
VH: not shown
VL: B1 VL with S53R, S55D
Take B21: the off-rate constant (koff) in experiment [1] stood at 3.6e-05 s⁻¹. Further, in experiment [2], the “Mean E max (%)” value stood at 109% and the “Mean EC50” value came to 0.146 nM.

B22: 16H7 variant with light chain substitution V98A (antibody, V domains shown)
VH: not shown
VL: B1 VL with S53R, V98A
B22 came in with a koff in experiment [1] of 4.6e-05 s⁻¹. Further, in experiment [2], the “Mean E max (%)” value was 99% and the “Mean EC50” value came out at 0.139 nM.

B23: 16H7 variant with light chain substitution S55R (antibody, V domains shown)
VH: not shown
VL: B1 VL with S53R, S55R
The molecule B23 had a koff in experiment [1] of 4.9e-05 s⁻¹. Moreover, in experiment [2], the “Mean E max (%)” value was 100% and the “Mean EC50” value was determined as 0.143 nM.

B24: 16H7 variant with light chain substitution S55Y (antibody, V domains shown)
VH: not shown
VL: B1 VL with S53R, S55Y
As to B24, the koff in experiment [1] worked out at 1.8e-05 s⁻¹. In addition, in experiment [2], the “Mean E max (%)” value worked out at 113% and the “Mean EC50” value was determined as 0.126 nM.

B25: 16H7 variant with light chain substitution S55C (antibody, V domains shown)
VH: not shown
VL: B1 VL with S53R, S55C
The molecule B25 displayed a koff in experiment [1] of 6.3e-05 s⁻¹. Besides, in experiment [2], the “Mean E max (%)” value amounted to 91% and the “Mean EC50” value was 0.244 nM.

B26: 16H7 variant with light chain substitution R53T (antibody, V domains shown)
VH: not shown
VL: B1 VL with S53T
B26: the koff in experiment [1] turned out to be 8.7e-05 s⁻¹. Also, in experiment [2], the “Mean E max (%)” value amounted to 109% and the “Mean EC50” value was 0.134 nM.

B27: 16H7 variant with light chain substitution S55I (antibody, V domains shown)
VH: not shown
VL: B1 VL with S53R, S55I
As for B27, in experiment [1], the koff turned out to be 1.3e-05 s⁻¹. Also, in experiment [2], the “Mean E max (%)” value turned out to be 110% and the “Mean EC50” value was 0.133 nM.

B28: 16H7 variant with light chain substitution V98T (antibody, V domains shown)
VH: not shown
VL: B1 VL with S53R, V98T
In experiment [1], B28 returned a koff of 3.1e-05 s⁻¹. Besides, in experiment [2], the “Mean E max (%)” value is 99% and the “Mean EC50” value amounted to 0.088 nM.

B29: Ab0180 (antibody, IgG4, V domains shown)
VH: not shown
VL: B1 VL with N25S, S53R
notes: IgG4 PE
With B29, in experiment [3], the EC50 was found to be 0.05 nM and the Emax was 2710%. The same molecule came in with a dissociation rate constant (koff) in experiment [4] of 0.00024 s⁻¹.

B30: 16H7 variant with light chain substitution S55L (antibody, V domains shown)
VH: not shown
VL: B1 VL with S53R, S55L
B30: the off-rate constant (koff) in experiment [1] is 8.4e-05 s⁻¹. Moreover, in experiment [2], the “Mean E max (%)” value is 97% and the “Mean EC50” value was 0.126 nM.

B31: 16H7 variant with light chain substitution V98H (antibody, V domains shown)
VH: not shown
VL: B1 VL with S53R, V98H
In experiment [1], B31 returned a koff of 1.8e-05 s⁻¹. Also, in experiment [2], the “Mean E max (%)” value came to 103% and the “Mean EC50” value came to 0.107 nM.

B32: 16H7 variant with light chain substitution S51E (antibody, V domains shown)
VH: not shown
VL: B1 VL with S51E, S53R
In experiment [1], B32 displayed a koff of 7.2e-05 s⁻¹. Also, in experiment [2], the “Mean E max (%)” value was 107% and the “Mean EC50” value is 0.108 nM.
